Test results: the supplement of paper PMC10567573
± gives the standard deviation.

Assay: protein stability index of a GFP-peptide fusion (GPS, HEK-293T) (PSI 1-6); higher = more stable
[1] = treatment: DMSO, c terminus: a fixed tail appended
[2] = treatment: MLN4924 1 uM, 8 h, c terminus: a fixed tail appended
[3] = treatment: DMSO, c terminus: native
[4] = treatment: MLN4924 1 uM, 8 h, c terminus: native
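Also: 24-mer peptide tiles fused after GFP, lentivirally expressed, FACS-sorted into six equal bins by GFP/DsRed ratio, decoded by Illumina sequencing, PSI is the read-weighted mean bin number.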

| Sequence | protein stability index [1] | protein stability index [2] | protein stability index [3] | protein stability index [4] |
| --- | --- | --- | --- | --- |
| MPEYRGQGIGSKIIKKVAEVALDK [SAT2] | 3.65 ± 0.35 | 4.05 ± 0.27 | – | – |
| GLHYIAFRKVKQMHLNFMDEKDRI [DNAJC4] | 2.54 ± 0.29 | 2.65 ± 0.35 | – | – |
| DALDSEGRDSEGPAEGEGRLGRCM [KCNG1] | 5.34 ± 0.28 | 5.53 ± 0.21 | – | – |
| RRPRRVEAERPHSLIGVIRETVL [FAM189A2] | – | – | 3.39 ± 0.12 | 3.42 ± 0.22 |
| KGAILTTMLATRNFSAAKSLLKKP [CAMK2D] | 2.82 ± 0.53 | 2.8 ± 0.32 | – | – |
| ICMAQIAYSGNTSNLSYHLEKNHP [ZBED1] | 2.3 ± 0.24 | 2.38 ± 0.26 | – | – |
| GKQPVSLPARRLKLRGRKRRQRG [CPXM2] | – | – | – | 3.59 ± 0.25 |
| IEAKEACDWLRATGFPQYAQLYED [DLC1] | 3.21 ± 0.43 | 3.31 ± 0.083 | – | – |
| NKLWELCCQWLKPKMRSKEQILEL [ZNF449] | 2.62 ± 0.35 | 2.9 ± 0.56 | – | – |
| WFQRQYLSTPDSQSLRCDLIRYIC [INTS3] | 2.25 ± 0.35 | 2.28 ± 0.44 | – | – |
| SSNKKEKKVLNHGYDDDNHDYIVR [DYRK1B] | 4.55 ± 0.22 | 4.45 ± 0.19 | – | – |
| QFYGYLSQQQNMMQDYVRTGTYQR [CARM1] | 2.47 ± 0.086 | 2.72 ± 0.22 | – | – |
| YDYPEEEQLSGAGYRVSAALEEAD [EID1] | 5.38 ± 0.31 | 5.22 ± 0.32 | – | – |
| NDPSQSEVMGEPHLMVEYKLGLL [POMP] | – | – | 4.16 ± 0.22 | 4.36 ± 0.21 |
| LCTPEGWFSCQGPFDMDSCLSRHS [DFFB] | 2.52 ± 0.5 | 2.75 ± 0.38 | – | – |
| LKLSIMSEEELTHIFGDLDSYIPL [NET1] | 2.21 ± 0.1 | 2.28 ± 0.2 | – | – |
| KQLKPWCWYCNRDFDDEKILIQHQ [ZNF207] | 2.21 ± 0.45 | 2.46 ± 0.59 | – | – |
| NKTKPIWTRNPDDITQEEYGEFYK [HSP90AB1] | 4.36 ± 0.42 | 4.49 ± 0.44 | – | – |
| LKKMGKRLDYLNLKGARLTVEQGC [FBXO39] | 2.62 ± 0.34 | 2.67 ± 0.28 | – | – |
| STEDMERALSEYLAVFARCLAGCE [P3H4] | 3.59 ± 0.2 | 3.37 ± 0.32 | – | – |
| QALEQFAAAAAHSTPVRREVTDKE [EPB41L3] | 5.02 ± 0.22 | 4.89 ± 0.41 | – | – |
| SFFLQIYLIMIFLGLYINFRHLYK [HACD3] | 2.79 ± 0.2 | 2.52 ± 0.041 | – | – |
| HSPFSSESRALSTSSNLGSQYQCE [TBX5] | 4.4 ± 0.35 | 4.53 ± 0.22 | – | – |

| Sequence | protein stability index [1] | protein stability index [2] | protein stability index [3] | protein stability index [4] |
| --- | --- | --- | --- | --- |
| LCKNLNREAQQYSEALASTRILKH [GLIPR2] | 3.57 ± 0.32 | 3.74 ± 0.33 | – | – |
| PPRTIKRTRRRLSRNRDPGRLILS [PWWP2B] | 4.37 ± 0.27 | 4.52 ± 0.35 | – | – |
| GTNAWEEIATKPHEKIGFPAARRC [KLHDC10] | 3.96 ± 0.22 | 3.91 ± 0.37 | – | – |
| GQFYLDLYPREGKYNHAACFGLQP [NLN] | 1.91 ± 0.16 | 2.09 ± 0.31 | – | – |
| NWLGRPSKVLSLQDLCCRTIVSCT [RAB40A] | 2.74 ± 0.08 | 2.88 ± 0.44 | – | – |
| STLEESVVRICCIRSFGHFIARLQ [SMG5] | 2.29 ± 0.04 | 2.19 ± 0.37 | – | – |
| KKYRLTEHERAHRGEKPHGCSLCG [ZNF649] | 3.72 ± 0.37 | 3.85 ± 0.36 | – | – |
| ILPKELQAWVQKHHPENGEETVTM [ZNF396] | 3.5 ± 0.07 | 3.58 ± 0.29 | – | – |
| KGGVQNFNKDLVQDCGFEHLVPVI [CEP70] | 2.53 ± 0.13 | 3.18 ± 0.46 | – | – |
| VRENVPRVLNSAKEKSSTVPIPTV [SOAT1] | 4.161 ± 0.036 | 4.16 ± 0.14 | – | – |
| VTLLVALKVRYRERITILRGNHES [PPP2CA] | 2.78 ± 0.5 | 2.67 ± 0.44 | – | – |
| PRTNEWTYVAKMSEPHYGHAGTVY [KLHL13] | 2.44 ± 0.21 | 2.61 ± 0.24 | – | – |
| SLKDHKVSFLRSGTKLIFRRRPRQ [C2CD2L] | 3.24 ± 0.49 | 3.44 ± 0.55 | – | – |
| EELMLVHSLEYIDLMETTQYMNEG [HDAC6] | 3.5 ± 0.2 | 3.41 ± 0.3 | – | – |
| LGTKSCSSSCAVHDLIFWRDVKKT [RTN3] | 2.29 ± 0.45 | 2.09 ± 0.33 | – | – |
| KNQGEENGFPDSTGDPLPEISKDN [EDARADD] | 5.5 ± 0.15 | 5.54 ± 0.067 | – | – |
| EVTADDRKVKSTITLDGGVLVHVQ [FABP4] | 3.7 ± 0.37 | 3.99 ± 0.17 | – | – |
| MDSRTVFGAWRCLLDATVAGGQTR [FCHSD1] | 1.92 ± 0.4 | 2.01 ± 0.33 | – | – |
| NLSKSRKILRSMSRKVTTNKLLLS [VTI1B] | 2.85 ± 0.35 | 2.92 ± 0.29 | – | – |
| CRGKKPSRIYGQAMAIINGSLYVF [KLHDC10] | 3.22 ± 0.66 | 2.51 ± 0.73 | – | – |
| LACGTMSSTCGQLASYPLALVRTR [SLC25A25] | 1.96 ± 0.16 | 2.36 ± 0.12 | – | – |
| YRALLSGSNPPYLPFRDASFGNCT [CDC14A] | 2.44 ± 0.091 | 2.49 ± 0.17 | – | – |
| AHWQCGATLTQVSVEYGYRPGATA [FCHO1] | 2.29 ± 0.18 | 2.24 ± 0.49 | – | – |

| Sequence | protein stability index [1] | protein stability index [2] | protein stability index [3] | protein stability index [4] |
| --- | --- | --- | --- | --- |
| SLSVRHRQVKHYRIFRLPNNWYYI [SLA] | 2.29 ± 0.7 | 2.58 ± 0.49 | – | – |
| LLCLFFGIPWEAGARQISYSIPEE [PCDHGA10] | 1.94 ± 0.035 | 2.45 ± 0.41 | – | – |
| RTRPRKPIRCGEVLFAVGGWCSGD [KLHL20] | 2.39 ± 0.28 | 2.17 ± 0.33 | – | – |
| KEYDVARNTGAYTSSGLATASFRT [TEKT4] | 3.6 ± 0.26 | 3.69 ± 0.14 | – | – |
| TRKLSPGKKRCKDIKRLLVNFMYL [SMG5] | 2.53 ± 0.45 | 2.62 ± 0.48 | – | – |
| METNGSTEGSRSRSRSLDIQPSSE [SPAG8] | 5.54 ± 0.33 | 5.35 ± 0.064 | – | – |
| EEFCEFVKSNTEQMREAFATAFSK [ZBED1] | 3.76 ± 0.27 | 3.98 ± 0.32 | – | – |
| TWVPMFLSTLLAPYQALRLWARGT [SOAT2] | 2.81 ± 0.48 | 2.72 ± 0.64 | – | – |
| EGQRQAQEYEALLNIKVKLEAEIA [KRT18] | 3.94 ± 0.18 | 4 ± 0.43 | – | – |
| VDRTHALMKKIGQCPMRVQKEVAG [CRYL1] | 3.45 ± 0.36 | 3.65 ± 0.35 | – | – |
| ERAELAASLGLTQTQVKIWFQNKR [DLX1] | 3.59 ± 0.34 | 3.87 ± 0.44 | – | – |
| FQHHAKPNCFRKDPDINMHPFFFA [FADS1] | 2.2 ± 0.43 | 2.29 ± 0.19 | – | – |
| FDRTEWVQIRRLEAAGESLEEEIR [ZC2HC1C] | 4.02 ± 0.08 | 4.55 ± 0.1 | – | – |
| GYNLRALAEGVSASLHTLLGDPCP [HDAC6] | 2.6 ± 0.31 | 2.64 ± 0.2 | – | – |
| EVTDTGDPIVRPLWWIAPGDETAH [MYORG] | 4.25 ± 0.28 | 4.38 ± 0.35 | – | – |
| LWIKFFAAGELESMGFSARYNFTP [NETO1] | 2.63 ± 0.85 | 2.58 ± 0.89 | – | – |
| ISCFNNAPPAKLACPVCSKMVPRY [FAN1] | 2.24 ± 0.19 | 2.67 ± 0.26 | – | – |
| VKYNSCADRPFSAPWWFWLSLTGV [POMT2] | 2.59 ± 0.35 | 2.72 ± 0.6 | – | – |
| GSQLPKPRMLRESGHGDAHLQEYA [FATE1] | 4.38 ± 0.25 | 4.5 ± 0.11 | – | – |
| HGDPIPKVEFTEEEIKTWGTVFQE [TPH1] | 4.87 ± 0.2 | 4.86 ± 0.16 | – | – |
| HCVTSDPATSPLVLAIPRRLRVEL [TRIM35] | 2.3 ± 0.37 | 2.13 ± 0.44 | – | – |
| IRAMGRLKIDFGDSARADDARQLF [GNAI1] | 2.63 ± 0.25 | 2.77 ± 0.14 | – | – |
| RPPFETTNLKETYRCIREARYTMP [PLK2] | 2.72 ± 0.47 | 2.31 ± 0.26 | – | – |

| Sequence | protein stability index [1] | protein stability index [2] | protein stability index [3] | protein stability index [4] |
| --- | --- | --- | --- | --- |
| YTSAGTYGLDSVKKKCLEWLLNNL [GMCL1] | 2.17 ± 0.19 | 2.16 ± 0.26 | – | – |
| GFEHYDLFFIDGSTPSDNIVRRFL [CDC14A] | 2.12 ± 0.24 | 2.16 ± 0.25 | – | – |
| EPPHNLFCAPGSWEWNELDHIMEI [SERTAD3] | 2.93 ± 0.13 | 3.07 ± 0.25 | – | – |
| GLGLPMSRSQNTDMVQKSVSKTLP [CLINT1] | 4.33 ± 0.23 | 4.44 ± 0.099 | – | – |
| PRPRPVSLSLRLPHQPVTAITRVS [SMTNL2] | 3.42 ± 0.24 | 3.58 ± 0.27 | – | – |
| STDPNIVRKKERGREEKCVWKHGI [TAF7L] | 3.31 ± 0.37 | 3.51 ± 0.26 | – | – |
| EAVRQEMRRQEPLPPPPPPSRGGN [WAS] | 5.18 ± 0.21 | 5.19 ± 0.11 | – | – |
| SENKIVGIGYNGMPNGCSDDVLPW [DCTD] | 3.46 ± 0.35 | 3.56 ± 0.15 | – | – |
| ASVAMICAIASGSELSESAFGYFI [SLC29A1] | 2.94 ± 0.68 | 2.48 ± 0.52 | – | – |
| ARRQWRDECLMRLAKLKSQVQPQ [CRYL1] | – | – | 2.9 ± 0.77 | 3.33 ± 0.73 |
| IIDCGDIVWSLAFGSSVPEKQSRC [WSB1] | 2.12 ± 0.24 | 2.35 ± 0.28 | – | – |
| CLIQKAQWTVGKLNCPFCGARLGG [RNF180] | 2.15 ± 0.18 | 2.79 ± 0.36 | – | – |
| RPHGIFGPRDPQLVPILIEAARNG [NSDHL] | 2.91 ± 0.34 | 3.04 ± 0.24 | – | – |
| DINSVRYYPSGDAFASGSDDATCR [GNB5] | 4.03 ± 0.047 | 4.22 ± 0.16 | – | – |
| SPEKFQIEANFPRRVLPCIPSEEW [FAF2] | 3.75 ± 0.12 | 3.79 ± 0.29 | – | – |
| TAGEMVFVYENAKEGARNIRTSER [BTBD10] | 3.94 ± 0.21 | 3.98 ± 0.14 | – | – |
| ALCQGLYFHINQTLREAHFHSLQH [FAM104A] | 2.81 ± 0.54 | 2.8 ± 0.51 | – | – |
| VTFRDVAVDFTQEEWGQLDPTQRI [ZNF8] | 3.8 ± 0.36 | 3.82 ± 0.33 | – | – |
| HRDLKPENLLLASKLKGAAVKLAD [CAMK2A] | 3.67 ± 0.22 | 3.62 ± 0.091 | – | – |
| DFLMCYSVAEGYYSHRETVNGSWY [CASP6] | 2.88 ± 0.8 | 2.86 ± 0.79 | – | – |
